Results: article PMC8241133

Target: CD123 peptide epitope (24 aa, extracellular domain, disulfide between the two Cys) (UniProt P26951)
Assay: flow cytometry, peptide-coated magnetic beads
Conditions: PBS (binding buffer), 37 °C, 30 min; BSA-bead signal subtracted for Kd; pH and salt not given

Sequence of UniProt P26951 (P26951 whole entry, the tested form may be a part): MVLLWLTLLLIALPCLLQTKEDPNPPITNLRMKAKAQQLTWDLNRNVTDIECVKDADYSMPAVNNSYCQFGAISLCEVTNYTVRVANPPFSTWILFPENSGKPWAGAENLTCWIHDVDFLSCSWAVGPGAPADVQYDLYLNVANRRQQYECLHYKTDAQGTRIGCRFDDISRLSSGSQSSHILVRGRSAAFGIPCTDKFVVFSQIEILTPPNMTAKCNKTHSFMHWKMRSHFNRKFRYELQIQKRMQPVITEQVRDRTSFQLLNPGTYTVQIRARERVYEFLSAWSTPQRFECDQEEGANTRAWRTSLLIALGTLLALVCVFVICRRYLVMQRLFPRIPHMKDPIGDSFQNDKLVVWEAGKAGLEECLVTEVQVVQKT

## TGCGTGTGTAGTGTGTCTGGGCTACATCGATGAGCTGCCTAGGGTCCCTCTTAGGGATTTGGGCGG [ZW25]
  Kd: 29.4 nM

## TGCGTGTGTACTGTGTCTGGTCCCGTAGCTACTAGCGAACTCCCTGCCTCTTAGGGATTTGGGCGG [CY30]
  Kd: 15.4 nM
